Source: US20230416411A1 (Hoffmann-La Roche, published 2023)
Residue numbers refer to the chain shown, from its start.

B1: EGFRvIII antibody P063.056, human IgG1 PGLALA (antibody, V domains shown)
VH: EVQLVQSGAEVKKPGESLKISCKGSGYSFDSYWIAWVRQMPGKGLEWMGVIHPYDSDTRYSPSFQGQVTISADKSISTAYLQWSSLKASDTAMYYCARVSRSSYAFDYWGQGTLVTVSS
VL: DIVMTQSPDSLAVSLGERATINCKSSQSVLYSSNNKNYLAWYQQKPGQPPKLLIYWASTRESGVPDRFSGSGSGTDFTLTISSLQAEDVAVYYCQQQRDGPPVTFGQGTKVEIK
notes: Anti-EGFRvIII PGLALA IgG
B2: EGFRvIII TCB P056.021 (CD3orig) (bispecific antibody, V domains shown)
VH 1: B1 VH
VL 1: not shown
VH 2: not shown
VL 2: QAVVTQEPSLTVSPGGTVTLTCGSSTGAVTTSNYANWVQEKPGQAFRGLIGGTNKRAPGTPARFSGSLLGGKAALTLSGAQPEDEAEYYCALWYSNLWVFGGGTKLTVL
notes: also called parental EGFRvIII TCB P056.021; P056.021 EGFRvIII TCB with CD3orig
B3: TYRP1 TCB CD3opt (bispecific antibody, human IgG1, kappa, L234A L235A)
heavy 1: not shown
heavy 2: QVQLVQSGAEVKKPGASVKVSCKASGFNIKDYFLHWVRQAPGQGLEWMGWINPDNGNTVYAQKFQGRVTMTADTSTSTVYMELSSLRSEDTAVYYCTRRDYTYEKAALDYWGQGTLVTVSSASTKGPSVFPLAPSSKSTSGGTAALGCLVEDYFPEPVTVSWNSGALTSGVHTFPAVLQSSGLYSLSSVVTVPSSSLGTQTYICNVNHKPSNTKVDEKVEPKSCDKTHTCPPCPAPEAAGGPSVFLFPPKPKDTLMISRTPEVTCVVVDVSHEDPEVKFNWYVDGVEVHNAKTKPREEQYNSTYRVVSVLTVLHQDWLNGKEYKCKVSNKALGAPIEKTISKAKGQPREPQVCTLPPSRDELTKNQVSLSCAVKGFYPSDIAVEWESNGQPENNYKTTPPVLDSDGSFFLVSKLTVDKSRWQQGNVFSCSVMHEALHNHYTQKSLSLSP
light 1: DIQMTQSPSSLSASVGDRVTITCRASGNIYNYLAWYQQKPGKVPKLLIYDAKTLADGVPSRFSGSGSGTDFTLTISSLQPEDVATYYCQHFWSLPFTFGQGTKLEIKRTVAAPSVFIFPPSDRKLKSGTASVVCLLNNFYPREAKVQWKVDNALQSGNSQESVTEQDSKDSTYSLSSTLTLSKADYEKHKVYACEVTHQGLSSPVTKSFNRGEC
light 2: EVQLLESGGGLVQPGGSLRLSCAASGFQFSSYAMNWVRQAPGKGLEWVSRIRSKYNNYATYYADSVKGRFTISRDDSKNTLYLQMNSLRAEDTAVYYCVRHTTFPSSYVSYYGYWGQGTLVTVSSASVAAPSVFIFPPSDEQLKSGTASVVCLLNNFYPREAKVQWKVDNALQSGNSQESVTEQDSKDSTYSLSSTLTLSKADYEKHKVYACEVTHQGLSSPVTKSFNRGEC
B4: TYRP1 TCB CD3orig (bispecific antibody, human IgG1, kappa, L234A L235A)
heavy 1: not shown
heavy 2: B3 heavy 2
light 1: B3 light 1
light 2: B3 light 2 with Q28T, S31T, T102G, T103N, P105G, S106N, Y111W, Y112F, G113A
B5: EGFRvIII TCB CD3orig (EGFRvIII binder P063.056) (bispecific antibody, human IgG1, kappa, L234A L235A)
heavy 1: not shown
heavy 2: EVQLVQSGAEVKKPGESLKISCKGSGYSFDSYWIAWVRQMPGKGLEWMGVIHPYDSDTRYSPSFQGQVTISADKSISTAYLQWSSLKASDTAMYYCARVSRSSYAFDYWGQGTLVTVSSASTKGPSVFPLAPSSKSTSGGTAALGCLVEDYFPEPVTVSWNSGALTSGVHTFPAVLQSSGLYSLSSVVTVPSSSLGTQTYICNVNHKPSNTKVDEKVEPKSCDKTHTCPPCPAPEAAGGPSVFLFPPKPKDTLMISRTPEVTCVVVDVSHEDPEVKFNWYVDGVEVHNAKTKPREEQYNSTYRVVSVLTVLHQDWLNGKEYKCKVSNKALGAPIEKTISKAKGQPREPQVCTLPPSRDELTKNQVSLSCAVKGFYPSDIAVEWESNGQPENNYKTTPPVLDSDGSFFLVSKLTVDKSRWQQGNVFSCSVMHEALHNHYTQKSLSLSP
light 1: not shown
light 2: B3 light 2 with Q28T, S31T, T102G, T103N, P105G, S106N, Y111W, Y112F, G113A
notes: 2+1 IgG CrossFab, inverted, with charge modifications; also called EGFRvIII TCB P063.056 with CD3orig

Experiments:
[1] = biological target: T1, EGFRvIII expressed on the cell surface (CHO-EGFRvIII, DK-MG, U87MG-EGFRvIII cells) (human, UniProt P00533 298-1210); experiment: flow cytometry on U87MG-EGFRvIII cells, labelled anti-human Fc secondary antibody
T1 construct: also called EGFRvIII on cells
Experimental: (§1) Cells used for binding experiments were harvested, washed with PBS and resuspended in FACS buffer. The antibody staining was performed in a 96-well round bottom plate. Cells were harvested, counted and 100 000 to 200 000 cells were seeded per well. The plate was centrifuged for 4 min at 400×g and the supernatant was removed. The test antibodies were diluted in FACS buffer and 20 μl of the antibody solution were added to the cells for 30 min at 4° C. To remove unbound antibody the cells were washed twice with FACS buffer before addition of the diluted secondary antibody PE-conjugated AffiniPure F(ab′)2 Fragment goat anti-human IgG Fcg Fragment Specific (Jackson ImmunoResearch, #109-116-170 or #109-116-098). After 30 min incubation on 4° C. unbound secondary antibody was washed away. Before measurement the cells were resuspended in 200 μl FACS buffer and analyzed by flow cytometry using BD Canto II or BD FACS Fortessa.

[2] = biological target: T1, EGFRvIII expressed on the cell surface …; experiment: flow cytometry on U87MG-EGFRvIII cells, IgG PGLALA
Experimental: as §1

[3] = biological target: TYRP1 on the primary melanoma cell line M150543 (human, UniProt P17643 25-537); experiment: cell-based or functional assay

| Binder | EC50 (read off the curve) [1] [nM] | EC50 (read off the curve) [2] [nM] | EC50 of tumor cell killing at 48 h, PBMC donor 1 [3] [nM] | EC50 of tumor cell killing at 48 h, PBMC donor 2 [3] [nM] | EC50 of tumor cell killing at 48 h, PBMC donor 3 [3] [nM] |
| --- | --- | --- | --- | --- | --- |
| B1 | ~4 | ~5 | – | – | – |
| B2 | ~5 | – | – | – | – |
| B3 | – | – | 0.31 | 0.03 | 0.08 |
| B4 | – | – | 0.44 | 0.05 | 0.14 |
| B5 | ~10 | – | – | – | – |
